Where a chain is given by its changes, count along the chain named. Numbers in names are those of the source.
T1: rHuman Erythropoietin R/Fc Chimera, CF (R&D Systems Cat#963-ER) (human, UniProt P19235 25-250)
T1 construct: Bought recombinant protein; also called EPO R; EPO R/Fc; Fc part of the bought chimera not given
T1 sequence (looked up): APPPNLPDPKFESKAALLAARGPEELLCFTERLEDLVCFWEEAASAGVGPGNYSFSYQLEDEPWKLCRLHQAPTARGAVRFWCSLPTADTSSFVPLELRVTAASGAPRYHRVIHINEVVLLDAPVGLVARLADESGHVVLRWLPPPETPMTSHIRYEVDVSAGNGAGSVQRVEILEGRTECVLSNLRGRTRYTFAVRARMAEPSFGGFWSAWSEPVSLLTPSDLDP

T2: rHuman Erythropoietin R/Fc Chimera, CF (R&D Systems Cat#963-ER) (human, UniProt P19235 25-250)
T2 construct: Bought recombinant protein; also called EPO R; Epo R; Fc part of the bought chimera not given
T2 sequence (looked up): T1 sequence (looked up)

B1: Fab VH1-46_IGHD6-6*01_IGHJ1*01 S102A/S103P/S104F/H111F F29A & L6_IGKJ1*01 (Fab, V domains shown)
VH: QVQLVQSGAEVKKPGASVKVSCKASGYTATSYYMHWVRQAPGQGLEWMGIINPSGGSTSYAQKFQGRVTMTRDTSTSTVYMELSSLRSEDTAVYYCAREEYAPFSAEYFQFWGQGTLVTVSS
VL: not shown
notes: Tested as Fab (CH1 with His6/Flag tags; kappa CL), expressed in E. coli; also called APFF F29A
B2: Fab VH1-46_IGHD6-6*01_IGHJ1*01 S102A/S103P/S104F/H111F S31A & L6_IGKJ1*01 (Fab, V domains shown)
VH: B1 VH with A29F, S31A
VL: not shown
notes: Tested as Fab (CH1 with His6/Flag tags; kappa CL), expressed in E. coli; also called APFF S31A
B3: Fab VH1-46_IGHD6-6*01_IGHJ1*01 S102A/S103P/S104F/H111F Y33A & L6_IGKJ1*01 (Fab, V domains shown)
VH: B1 VH with A29F, Y33A
VL: not shown
notes: Tested as Fab (CH1 with His6/Flag tags; kappa CL), expressed in E. coli; also called APFF Y33A
B4: Fab VH1-46_IGHD6-6*01_IGHJ1*01 S102A/S103P/S104F/H111F T30A & L6_IGKJ1*01 (Fab, V domains shown)
VH: B1 VH with A29F, T30A
VL: not shown
notes: Tested as Fab (CH1 with His6/Flag tags; kappa CL), expressed in E. coli; also called APFF T30A
B5: Fab VH1-46_IGHD6-6*01_IGHJ1*01 S102A/S103P/S104F/H111F T28A & L6_IGKJ1*01 (Fab, V domains shown)
VH: B1 VH with T28A, A29F
VL: not shown
notes: Tested as Fab (CH1 with His6/Flag tags; kappa CL), expressed in E. coli; also called APFF T28A
B6: Fab VH3-23_IGHD2-21*01>3_IGHJ6*01 H100E/S108P/Y113G/Y111I & V2-13_IGLJ2*01 (Fab, V domains shown)
VH: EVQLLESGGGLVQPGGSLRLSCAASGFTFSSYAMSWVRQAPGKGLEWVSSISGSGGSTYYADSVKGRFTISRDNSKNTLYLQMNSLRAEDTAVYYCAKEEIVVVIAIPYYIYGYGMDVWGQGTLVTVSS
VL: SSELTQDPAVSVALGQTVRITCQGDSLRSYYASWYQQKPGQAPVLVIYGKNNRPSGIPDRFSGSSSGNTASLTITGAQAEDEADYYCNSRDSSGNHLVVFGGGTKLTVL
notes: Fab made in E. coli: VH joined to CH1 (with His and Flag tags, plasmid A) and VL to lambda CL (plasmid E); also called EPG Y111I
B7: Fab VH3-23_IGHD2-21*01>3_IGHJ6*01 H100E/S108P/Y113G/Y111S & V2-13_IGLJ2*01 (Fab, V domains shown)
VH: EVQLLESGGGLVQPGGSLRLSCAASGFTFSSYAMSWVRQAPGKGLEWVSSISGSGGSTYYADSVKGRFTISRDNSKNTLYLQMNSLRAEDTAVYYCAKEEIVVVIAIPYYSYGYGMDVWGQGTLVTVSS
VL: B6 VL
notes: Fab made in E. coli: VH joined to CH1 (with His and Flag tags, plasmid A) and VL to lambda CL (plasmid E); also called EPG Y111S
B8: Fab VH3-23_IGHD2-21*01>3_IGHJ6*01 H100E/S108P/Y113G/Y110R & V2-13_IGLJ2*01 (Fab, V domains shown)
VH: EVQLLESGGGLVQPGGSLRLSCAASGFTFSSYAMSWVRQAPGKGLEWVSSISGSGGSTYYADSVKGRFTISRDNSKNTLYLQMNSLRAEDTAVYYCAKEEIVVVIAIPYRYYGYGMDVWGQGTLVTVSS
VL: B6 VL
notes: Fab made in E. coli: VH joined to CH1 (with His and Flag tags, plasmid A) and VL to lambda CL (plasmid E); also called EPG Y110R
B9: Fab VH3-23_IGHD2-21*01>3_IGHJ6*01 H100E/S108P/Y113G/Y111N & V2-13_IGLJ2*01 (Fab, V domains shown)
VH: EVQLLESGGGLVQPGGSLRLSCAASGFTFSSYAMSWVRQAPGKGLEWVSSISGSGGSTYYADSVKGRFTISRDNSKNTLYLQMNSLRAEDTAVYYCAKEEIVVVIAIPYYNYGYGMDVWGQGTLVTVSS
VL: B6 VL
notes: Fab made in E. coli: VH joined to CH1 (with His and Flag tags, plasmid A) and VL to lambda CL (plasmid E); also called EPG Y111N
B10: Fab VH3-23_IGHD2-21*01>3_IGHJ6*01 H100E/S108P/Y113G/Y111T & V2-13_IGLJ2*01 (Fab, V domains shown)
VH: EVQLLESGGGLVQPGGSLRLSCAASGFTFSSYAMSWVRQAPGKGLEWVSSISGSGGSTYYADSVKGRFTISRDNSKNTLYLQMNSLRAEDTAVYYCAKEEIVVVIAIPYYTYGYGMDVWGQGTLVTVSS
VL: B6 VL
notes: Fab made in E. coli: VH joined to CH1 (with His and Flag tags, plasmid A) and VL to lambda CL (plasmid E); also called EPG Y111T
B11: Fab VH3-23_IGHD2-21*01>3_IGHJ6*01 H100E/S108P/Y113G Y110N & V2-13_IGLJ2*01 (Fab, V domains shown)
VH: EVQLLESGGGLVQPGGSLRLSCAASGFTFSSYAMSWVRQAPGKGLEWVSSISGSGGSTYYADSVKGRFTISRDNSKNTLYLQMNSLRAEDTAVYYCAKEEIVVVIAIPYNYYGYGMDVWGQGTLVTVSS
VL: B6 VL
notes: Tested as Fab made in E. coli: VH joined to CH1 (His and Flag tags), VL joined to lambda CL; also called EPG Y110N
B12: Fab VH3-23_IGHD2-21*01>3_IGHJ6*01 H100E/S108P/Y113G Y110P & V2-13_IGLJ2*01 (Fab, V domains shown)
VH: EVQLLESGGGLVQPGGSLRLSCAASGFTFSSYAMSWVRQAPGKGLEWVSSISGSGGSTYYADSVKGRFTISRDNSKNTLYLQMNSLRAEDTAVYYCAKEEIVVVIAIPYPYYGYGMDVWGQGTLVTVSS
VL: B6 VL
notes: Tested as Fab made in E. coli: VH joined to CH1 (His and Flag tags), VL joined to lambda CL; also called EPG Y110P
B13: Fab VH3-23_IGHD2-21*01>3_IGHJ6*01 H100E/S108P/Y113G Y110S & V2-13_IGLJ2*01 (Fab, V domains shown)
VH: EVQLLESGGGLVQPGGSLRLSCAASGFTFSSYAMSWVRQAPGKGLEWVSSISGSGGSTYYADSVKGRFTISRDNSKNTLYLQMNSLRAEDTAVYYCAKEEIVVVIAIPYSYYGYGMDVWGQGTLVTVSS
VL: B6 VL
notes: Tested as Fab made in E. coli: VH joined to CH1 (His and Flag tags), VL joined to lambda CL; also called EPG Y110S

molecular target: T3, Recombinant Human DLL4 (R&D Systems Cat#1506-D4/CF) (human, UniProt Q9NR61 27-524); experiment: ECL Multispot (MSD), DLL4 spotted, 10 nM Fab
T3 construct: Bought recombinant protein; also called delta-like protein 4; rHuman DLL4

ECL Signal/Noise	Binder
190	B1
453	B2
136	B3
457	B4
334	B5

molecular target: T3, Recombinant Human DLL4 (R&D Systems …); experiment: ELISA, DLL4 coated, 100 nM Fab, absorbance at 450 nm minus noise

ELISA (Signal-Noise)	Binder
0.67	B1
0.47	B2
0.09	B3
0.64	B4
0.77	B5

molecular target: T4, rHuman ErbB2/Fc Chimera, CF (R&D Systems Cat#1129-ER) (human, UniProt P04626 23-652); experiment: ECL (MSD) multispot binding assay, antigen spotted on plate, 20 nM Fab;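 note: purified Fab incubated 1 h at 20 °C on antigen-spotted plate, bound Fab revealed with TAG detection antibody, ECL read, antigen signal divided by same-well blank, ratio ≥4 counted as hit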
T4 construct: Bought recombinant protein; also called human epidermal growth factor 2 receptor; Fc part of the bought chimera not given

ECL signal/blank ratio	Binder
1.7	B6
2.1	B7
2.1	B8
1.5	B9

molecular target: T5, rHuman EGF R/Fc Chimera, CF (R&D Systems Cat#344-ER) (human, UniProt P00533 25-645); experiment: as above
T5 construct: Bought recombinant protein; also called epidermal growth factor receptor; Fc part of the bought chimera not given

ECL signal/blank ratio	Binder
1.9	B6
1.8	B7
1.6	B8
1.4	B9

molecular target: T6, rHuman Notch-1/Fc Chimera, CF (R&D Systems Cat#3647-TK) (human, UniProt P46531 19-526); experiment: as above
T6 construct: Bought recombinant protein; Fc part of the bought chimera not given

ECL signal/blank ratio	Binder
1.8	B6
1.9	B7
1.6	B8
2	B10
1.3	B9

molecular target: T7, rHuman CD44/Fc Chimera, CF (R&D Systems Cat#3660-CD) (human, UniProt P16070 21-220); experiment: as above
T7 construct: Bought recombinant protein; Fc part of the bought chimera not given

ECL signal/blank ratio	Binder
1.3	B6
1.2	B7
1.3	B8
1.8	B10
0.9	B9

molecular target: T8, rHuman IGF-1 sR, (IGF-1 sR), CF (R&D Systems Cat#391-GR) (human, UniProt P08069 31-932); experiment: as above
T8 construct: Bought recombinant soluble receptor; also called insulin-like growth factor-1 soluble receptor

ECL signal/blank ratio	Binder
1	B6
1.3	B7
1.4	B8
1.2	B10
0.8	B9

molecular target: T9, rHuman P-Cadherin/Fc Chimera, CF (R&D Systems Cat#861-PC) (human, UniProt P22223 108-654); experiment: as above
T9 construct: Bought recombinant protein; Fc part of the bought chimera not given

ECL signal/blank ratio	Binder
1.9	B6
5	B7
6.2	B10
2.9	B9

molecular target: T1, rHuman Erythropoietin R/Fc Chimera, CF …; experiment: as above

ECL signal/blank ratio	Binder
6.9	B6
30.1	B7
4.8	B8
38.8	B10
9.3	B9

molecular target: T10, Recombinant Human DLL4 (R&D Systems Cat#1506-D4/CF) (human, UniProt Q9NR61 27-524); experiment: as above
T10 construct: Bought recombinant protein; also called delta-like protein 4; rHuman DLL4

ECL signal/blank ratio	Binder
1.5	B6
1.7	B7
1.8	B8
2.2	B10
1.1	B9

molecular target: T11, rHuman ErbB2/Fc Chimera, CF (R&D Systems Cat#1129-ER) (human, UniProt P04626 23-652); experiment: ECL multispot (MSD) binding assay, antigens spotted on plate, 20 nM Fab;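 note: fab incubated 1 h at 20 °C on antigen-spotted wells, bound Fab detected by TAG-labelled antibody, ratio of 4 or more over blank counted as a hit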
T11 construct: Bought recombinant protein; also called human epidermal growth factor 2 receptor; Fc part of the bought chimera not given

ECL multispot signal (ratio to blank; column not labelled)	Binder
1.2	B11
0.9	B12
1	B13

molecular target: T12, rHuman EGF R/Fc Chimera, CF (R&D Systems Cat#344-ER) (human, UniProt P00533 25-645); experiment: as above
T12 construct: Bought recombinant protein; also called epidermal growth factor receptor; Fc part of the bought chimera not given

ECL multispot signal (ratio to blank; column not labelled)	Binder
0.9	B11
1.1	B12
1.3	B13

molecular target: T13, rHuman Notch-1/Fc Chimera, CF (R&D Systems Cat#3647-TK) (human, UniProt P46531 19-526); experiment: as above
T13 construct: Bought recombinant protein; Fc part of the bought chimera not given

ECL multispot signal (ratio to blank; column not labelled)	Binder
1.3	B11
1.1	B12
0.8	B13

molecular target: T14, rHuman CD44/Fc Chimera, CF (R&D Systems Cat#3660-CD) (human, UniProt P16070 21-220); experiment: as above
T14 construct: Bought recombinant protein; Fc part of the bought chimera not given

ECL multispot signal (ratio to blank; column not labelled)	Binder
0.8	B11
1.2	B12
1	B13

molecular target: T15, rHuman IGF-1 sR, (IGF-1 sR), CF (R&D Systems Cat#391-GR) (human, UniProt P08069 31-932); experiment: as above
T15 construct: Bought recombinant soluble receptor; The column head prints only 'IGF-1'; also called insulin-like growth factor-1 soluble receptor

ECL multispot signal (ratio to blank; column not labelled)	Binder
0.9	B11
1.2	B12
1.1	B13

molecular target: T16, rHuman P-Cadherin/Fc Chimera, CF (R&D Systems Cat#861-PC) (human, UniProt P22223 108-654); experiment: as above
T16 construct: Bought recombinant protein; Fc part of the bought chimera not given

ECL multispot signal (ratio to blank; column not labelled)	Binder
1.2	B11
1.7	B12
1.9	B13

molecular target: T2, rHuman Erythropoietin R/Fc Chimera, CF …; experiment: as above

ECL multispot signal (ratio to blank; column not labelled)	Binder
1.6	B11
2.9	B12
4.5	B13

molecular target: T17, Recombinant Human DLL4 (R&D Systems Cat#1506-D4/CF) (human, UniProt Q9NR61 27-524); experiment: as above
T17 construct: Bought recombinant protein; also called delta-like protein 4; rHuman DLL4

ECL multispot signal (ratio to blank; column not labelled)	Binder
1.2	B11
1.4	B12
1.2	B13

— patent US20120316071A1 (published 2012)
